The chains are these.
T1: human TACI/TNFRSF13B (CD267) His-tag, from Sino Biological (human, UniProt O14836 1-166, limits assumed)
T1 construct: Bought protein; not shown: His-tag
T1 sequence (looked up): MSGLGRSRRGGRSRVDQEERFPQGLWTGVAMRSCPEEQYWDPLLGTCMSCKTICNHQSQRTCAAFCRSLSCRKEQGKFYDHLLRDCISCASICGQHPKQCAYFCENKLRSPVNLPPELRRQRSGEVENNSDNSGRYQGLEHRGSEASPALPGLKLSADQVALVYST

T2: BCMA on MM1R cells (human, UniProt Q02223)
T2 construct: full length, on the surface of MM1R multiple myeloma cells; also called MM1R multiple myeloma cell line
T2 sequence (receptor, looked up): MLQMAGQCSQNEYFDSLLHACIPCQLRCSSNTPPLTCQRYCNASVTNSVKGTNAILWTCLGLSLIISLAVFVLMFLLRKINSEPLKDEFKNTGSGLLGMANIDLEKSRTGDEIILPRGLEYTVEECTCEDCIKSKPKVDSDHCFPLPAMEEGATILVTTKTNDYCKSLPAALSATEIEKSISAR

T3: Wild type human BCMA protein-mouse Fc (human)
T3 construct: also called wild type human BCMA-mouse Fc; wild type BCMA protein
T3 chain: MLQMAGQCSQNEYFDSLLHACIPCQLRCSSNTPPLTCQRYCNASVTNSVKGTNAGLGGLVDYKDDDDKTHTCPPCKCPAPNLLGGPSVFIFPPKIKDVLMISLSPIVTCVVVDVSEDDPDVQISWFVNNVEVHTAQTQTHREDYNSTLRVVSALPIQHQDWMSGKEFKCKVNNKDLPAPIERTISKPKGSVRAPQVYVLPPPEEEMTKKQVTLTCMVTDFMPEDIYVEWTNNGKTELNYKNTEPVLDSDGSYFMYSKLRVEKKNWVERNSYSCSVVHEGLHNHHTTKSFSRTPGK

T4: Mutant-1 human BCMA protein-mouse Fc (human)
T4 construct: also called mutant-1 human BCMA-mouse Fc (17G-18G); mutant-1 BCMA protein
T4 chain: T3 chain with L17G, L18G

T5: his-tagged mouse BCMA protein (ACROBiosystems, catalog # BCA-M52H3) (mouse, UniProt O88472 1-49)
T5 construct: Bought protein; not shown: his tag
T5 chain (looked up): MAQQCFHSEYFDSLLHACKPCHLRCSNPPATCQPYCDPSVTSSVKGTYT

T6: his-tagged human BCMA protein (ACROBiosystems, catalog # BCA-H522y-100 ug) (human, UniProt Q02223 1-54)
T6 construct: limits of the bought construct are not otherwise stated; also called recombinant his-tagged human BCMA; not shown: his tag of the bought protein
T6 sequence: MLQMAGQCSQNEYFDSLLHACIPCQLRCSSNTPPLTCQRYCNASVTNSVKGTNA

T7: human BAFFR/TNFRSF13C (CD268) Fc tag, from Sino Biological (human, UniProt Q96RJ3 1-71, limits assumed)
T7 construct: Bought protein; not shown: Fc tag
T7 sequence (looked up): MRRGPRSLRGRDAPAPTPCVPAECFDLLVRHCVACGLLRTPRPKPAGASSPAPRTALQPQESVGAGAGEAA

T8: human APRIL protein (R&D Systems, catalog #5860-AP-010/CF) (human, UniProt O75888 105-250, limits assumed)
T8 construct: Bought protein; also called human APRIL protein from R&D Systems; TNF13
T8 sequence (looked up): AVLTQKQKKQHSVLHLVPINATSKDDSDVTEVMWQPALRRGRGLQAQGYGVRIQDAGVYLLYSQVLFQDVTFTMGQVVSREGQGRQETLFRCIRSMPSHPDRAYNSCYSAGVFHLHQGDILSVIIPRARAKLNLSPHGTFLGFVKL

B1: Bluebird C11D5 antibody (BB anti-BCMA Ab) (antibody, V domains shown)
VH: QIQLVQSGPELKKPGETVKISCKASGYTFTDYSINWVKRAPGKGLKWMGWINTETREPAYAYDFRGRFAFSLETSASTAYLQINNLKYEDTATYFCALDYSYAMDYWGQGTTLTVSS
VL: DIVLTQSPASLAMSLGKRATISCRASESVSVIGAHLIHWYQQKPGQPPKLLIYLASNLETGVPARFSGSGSGTDFTLTIDPVEEDDVAIYSCLQSRIFPRTFGGGTKLEIK
notes: Comparator anti-BCMA antibody; also called BB C11D5; Bluebird antibody
B2: GSK J6M0 antibody (GSK anti-BCMA Ab) (antibody, V domains shown)
VH: QVQLVQSGAEVKKPGSSVKVSCKASGGTFSNYWMHWVRQAPGQGLEWMGATYRGHSDTYYNQKFKGRVTITADKSTSTAYMELSSLRSEDTAVYYCARGAIYDGYDVLDNWGQGTLVTVSS
VL: DIQMTQSPSSLSASVGDRVTITCSASQDISNYLNWYQQKPGKAPKLLIYYTSNLHSGVPSRFSGSGSGTDFTLTISSLQPEDFATYYCQQYRKLPWTFGQGTKLEIK
notes: Comparator anti-BCMA antibody; captured by anti-human Fc in SPR, so it carries a human Fc; also called GSK antibody
B3: Mutant-2 human BCMA protein-mouse Fc (Fc fusion)
chain: MLQMAGQCSQNEYFDSLLHACIPCQLRCSSNPPGTCQRYCNASVTNSVKGTNAGLGGLVDYKDDDDKTHTCPPCKCPAPNLLGGPSVFIFPPKIKDVLMISLSPIVTCVVVDVSEDDPDVQISWFVNNVEVHTAQTQTHREDYNSTLRVVSALPIQHQDWMSGKEFKCKVNNKDLPAPIERTISKPKGSVRAPQVYVLPPPEEEMTKKQVTLTCMVTDFMPEDIYVEWTNNGKTELNYKNTEPVLDSDGSYFMYSKLRVEKKNWVERNSYSCSVVHEGLHNHHTTKSFSRTPGK
notes: also called mutant-2 human BCMA-mouse Fc (del32-35G); mutant-2 BCMA protein

The target of assay [1] is T1, human TACI/TNFRSF13B (CD267) His-tag, …. The assay is described as follows: bio-layer interferometry, antibody coupled to AR2G sensor, TACI in solution. On the procedure:
(§1) Bio-layer interferometry was used to measure cross-binding between (1) two different anti-BCMA antibodies (BCA7-2C5 or BB C11D5) or a control isotype, and (2) various human antigens including TACI and BAFFR.
(§2) Immobilization of antibody was achieved through standard EDC-catalyzed amide bond formation to create a covalent bond between a reactive amine on the protein and the carboxy-terminated biosensor surface. Briefly, AR2G sensors (OctetRED96e from ForteBio) were activated by EDC-NHS for 6 minutes, then 5 ug/ml antibodies were loaded (BCA7-2C5 antibody, Bluebird C11D5 chimeric antibody, or a human IgG isotype antibody) in 10 mM acetate buffer pH 5.0 for 6 minutes, followed by quenching for 6 minutes with 1M ethanolamine pH 8.5. The 3 minutes baseline step removed any unbound antibody from the biosensor, followed by 1.5 minutes each for association of three analyte proteins TACI (human TACI/TNFRSF13B (CD267) His-tag, from Sino Biological, 1 ug/mL in PBS), BAFFR (human BAFFR/TNFRSF13C (CD268) Fc tag) from Sino Biological, 2 ug/mL in PBS), and human BCMA protein (in-house made with mouse Fc, 2 ug/mL in PBS).
A general note: BLI is a label-free optical method that tracks binding on a fibre tip over time.

The target in a further assay is T2, BCMA on MM1R cells. The assay is described as follows: flow cytometry on MM1R cells, 5x serial dilution, FITC goat anti-human IgG F(ab')2, GeoMean BL1-H. From the text:
Flow cytometry was used to test antibody binding to multiple myeloma cell line MM1R, using various anti-BCMA antibodies (5× serial dilution) and 80,000 cells per well. The secondary antibody was FITC AffiniPure FAB2 fragment goat anti-human IgG (H+L) (from Jackson Immuno Research). […] A BL-1 detector (IntelliCyt iQue Screener Plus) which detects at 530 nm was used. The geometric mean is reported.
Background: Flow cytometry measures light scatter and fluorescence of single cells or particles in a stream.

For assay [2], the target named is B3. The assay is described as follows: bio-layer interferometry, antibody (100 nM) loaded on AR2G sensor, BCMA-mouse Fc in solution. As to the method: (§3) The results of the protein-protein binding assays described in Example 8 were used to design an epitope mapping assay using bio-layer interferometry. Various anti-BCMA antibodies (2C5, 2E1, 4C9, 6G8, Bluebird C11D5, GSK J6M0, or isotype control) (100 nM) were loaded onto AR2G sensors and reacted with buffer or one of three types of human BCMA proteins including: including: wild type human BCMA-mouse Fc (SEQ ID NO:5), mutant-1 human BCMA-mouse Fc (double mutation 17G-18G; SEQ ID NO:6), or mutant-2 human BCMA-mouse Fc (mutation del32-35G; SEQ ID NO:7).

For assay [3], the target named is T3, Wild type human BCMA protein-mouse Fc. The assay is described as above. On the procedure: as §3
For assay [4], the target named is T4, Mutant-1 human BCMA protein-mouse Fc. The description is as above. On the procedure: as §3
In assay [5] the target is T5, his-tagged mouse BCMA protein …. The assay is described as follows: ELISA, his-tagged BCMA on Ni-NTA plate at 2 µg/mL, anti-human Fc HRP. On the procedure:
Cross-reactivity of the anti-BCMA antibodies with his-tagged BCMA protein from human, cynomolgus or mouse, were analyzed by ELISA assay. The Ni-NTA plate was coated with his-tagged BCMA proteins (listed in Example 2 above) at 2 μg/mL, then reacted with an anti-BCMA antibody at 20 μg/mL, and reacted with anti-human Fc HRP (KPL Scientific, catalog #5220-0279) at 1:2500 dilution. […] Each set includes 5 test antigens or buffer, from left to right: negative control antigen, his-tagged mouse BCMA protein, his-tagged cynomolgus BCMA protein, his-tagged human BCMA protein, and Dulbecco's Phosphate-Buffered Saline.
On the technique in general: In an ELISA, binding on a coated surface is turned into a signal by an enzyme label.

Assay [6] addresses T6, his-tagged human BCMA protein …. The experiment in a line: ELISA, his-tagged BCMA on Ni-NTA plate at 2 µg/mL, antibody at 20 µg/mL.
In assay [7] the target is T7, human BAFFR/TNFRSF13C (CD268) Fc tag, …. The experiment in a line: bio-layer interferometry, antibody coupled to AR2G sensor, BAFFR in solution. As to the method:
as §1, §2

Assay [8] deals with T6, his-tagged human BCMA protein …. The assay is described as follows: SPR (Biacore T200, 25 C), antibody captured on anti-human Fc, his-tagged human BCMA as analyte, 1:1 binding model. As to the method:
Binding kinetics of anti-BCMA antibodies with his-tagged human BCMA protein (ACROBiosystems, catalog # BCA-H522y-100 ug, UniProt Q02223-1, SEQ ID NO:92) was measured using surface plasmon resonance (SPR). Kinetic interactions between the antibodies and his-tagged BCMA proteins were measured at 25° C. using Biacore T200 surface plasmon resonance (GE Healthcare). Anti-human fragment crystallizable region (Fc region) antibody was immobilized on a CM5 sensor chip to approximately 8000 resonance units (RU) using standard N-hydroxysuccinimide/N-Ethyl-N′-(3-dimethylaminopropyl) carbodiimide hydrochloride (NHS/EDC) coupling methodology. The anti-BCMA antibody (2 μg/mL) was captured for 60 seconds at a flow rate of 10 μL/minute. The his-tagged BCMA protein was run at six different dilutions of 3.12, 6.25, 12.5, 25, 50, 100 and 200 nM, in a running buffer of 0.01 M HEPES pH 7.4, 0.15 M NaCl, 3 mM EDTA, 0.05% v/v Surfactant P20 (HBS-EP+). The 25 nM BCMA protein run was measured two times. All measurements were conducted in HBS-EP+ buffer with a flow rate of 30 μL/minute. A 1:1 (Langmuir) binding model was used to fit the data. The SPR sensorgrams of anti-BCMA antibodies BCA7, GSK J6M0, BC4C9 and BC5C4 are shown in FIGS. 1, 2, 3 and 4, respectively, and their corresponding binding kinetics are listed in Table 3.

For assay [9], the target named is T8, human APRIL protein (R&D Systems, …). The experiment in a line: bio-layer interferometry, APRIL on AR2G sensor, BCMA-mouse Fc at 2.5 µg/mL. As to the method: Bio-layer interferometry was also used to measure binding between APRIL protein, and wild type or mutant BCMA proteins. Human APRIL protein (R&D Systems, catalog #5860-AP-010/CF) was loaded onto an Ar2G sensor (OctetRET96e) and reacted with 2.5 μg/mL of one of three types of human BCMA proteins including: wild type human BCMA-mouse Fc (SEQ ID NO:5), mutant-1 human BCMA-mouse Fc (17G-18G; SEQ ID NO:6), or mutant-2 human BCMA-mouse Fc (de132-35G; SEQ ID NO:7).

Changes are numbered by the printed parent chain.

With B1, the binding result in assay [1] is recorded as “no binding (tested: 1 ug/mL)”; with BCMA on MM1R cells it was “binds”; in [2], “binds”; in [3], “binds”; in [4] it was “binds”; in [5], “no binding (tested: 20 µg/mL)”. Moreover, the figures for the binding result in assay [6] and in assay [7] were “binds” and “no binding (tested: 2 ug/mL)”, respectively.
B2: in assay [3], the binding result was “binds”. The binding result in [4] is on record as “binds”. For the same molecule, in [8], the Kd is 2.52 nM, the koff turned out to be 0.000496 s⁻¹ and the kon came to 197000 M⁻¹ s⁻¹. In addition, the binding result in [5] is reported as “no binding (tested: 20 µg/mL)”.
Regarding B3, the binding result in assay [9] is “binds”.

By Kd is commonly meant the equilibrium constant for the complex coming apart. Low readings indicate tighter binding, high ones weaker binding. A word on the koff: it is a measure of how fast the partners let go of each other. Low readings indicate slow dissociation, high ones fast dissociation. What is called kon is the rate constant with which the complex forms.

These data come from US20210388097A1 (SORRENTO THERAPEUTICS, published 2021).
